How the values were obtained:
Experiment in all cases: purified protein
O=C(O)CC(=O)C(=O)O = details: 0.18 mM MnCl2, 100 mM Tris-HCl pH 8.0
NC[C@H](N)C(=O)O = details: oxalyl-CoA made in situ by excess PanE from 1 mM CoA, 1 mM NADP+, 1 mM glyoxylate, 50 mM Tris-HCl pH 7.5, 30 °C
purified protein = substrate: O=CC(=O)O; format: biochemical, Saccharomyces cerevisiae; details: 2 mM cytochrome c, 100 mM sodium phosphate pH 7.5

Fpoah (Fomitopsis palustris)
Km (O=C(O)CC(=O)C(=O)O): 420 µM
Vmax (O=C(O)CC(=O)C(=O)O): 22.8 µM/min/mg

LsBAHD (Lathyrus sativus)
Km (NC[C@H](N)C(=O)O): 520 µM
Vmax (NC[C@H](N)C(=O)O): 2.88 µM/min/mg

B1: Scgloxdh (Cyb2p) (Saccharomyces cerevisiae S288C) (protein)
chain: EPKLDMNKQKISPAEVAKHNKPDDCWVVINGYVYDLTRFLPNHPGGQDVIKFNAGKDVTAIFEPLHAPNVIDKYIAPEKKLGPLQGSMPPELVCPPYAPGETKEDIARKEQLKSLLPPLDNIINLYDFEYLASQTLTKQAWAYYSSGANDEVTHRENHNAYHRIFFKPKILVDVRKVDISTDMLGSHVDVPFYVSATALCKLGNPLEGEKDVARGCGQGVTKVPQMISTLASCSPEEIIEAAPSDKQIQWYQLYVNSDRKITDDLVKNVEKLGVKALFVTVDAPSLGQREKDMKLKFSNTKAGPKAMKKTNVEESQGASRALSKFIDPSLTWKDIEELKKKTKLPIVIKGVQRTEDVIKAAEIGVSGVVLSNHGGRQLDFSRAPIEVLAETMPILEQRNLKDKLEVFVDGGVRRGTDVLKALCLGAKGVGLGRPFLYANSCYGRNGVEKAIEILRDEIEMSMRLLGVTSIAELKPDLLDLSTLKARTVGVPNDVLYNEVYEGPTLTEFEDA
Km (purified protein): 740 µM
Vmax (purified protein): 0.66 µM/min/mg
